Values joined by “and” are separate entries in the source; they are usually repeats but may differ in a detail not shown here. Equal values may be shown once.
What was measured:
Type in all cases: biochemical
[1] = Cell lysate reaction of pMT enzymes with psi-ionone, irones quantified by HS-SPME-GCMS; settings: for fold change in cis-α-irone produced: AUC vs non-mutated (=1)
Method in brief: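 pMT1 site-saturation mutants were expressed in E. coli BL21(DE3) and lysed, and lysates were incubated 2 days at 28 °C with 0.2 mM SAM and 10 mg/L psi-ionone (plus caryophyllene) in 50 mM Tris pH 7, 10 mM MgCl2. Cis-α-irone was measured by HS-SPME-GCMS peak area and given as fold change over non-mutated enzyme.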

[2] = Purified pMT7/pMT10 reaction with auxiliary enzymes mtn and mtaD; settings: for cis-α-irone amount relative to pMT7 reaction alone: purified enzyme
Source text: (§1) All the purified enzyme reactions were done in triplicates.
An alternative strategy to reduce SAH inhibition is to introduce auxiliary enzymes that degrade SAH12 (FIG. 18a). […] Noteworthy, with mtaD enzyme, cis-α-irone production by pMT10 was improved by ˜2.5 fold as compared to pMT10 reaction alone (FIG. 3c). […] This somewhat agrees with the effect of mutating D135, which abolishes the hydrogen bond interaction between pMT7 and the amine group of the adenine moiety.

[3] = Steady-state kinetics of purified pMT enzyme, substrate psi-ionone; settings: pMT10 vs pMT7 (Table 3)
Protocol: The steady-state kinetic parameters of pMT7 were determined (Table 3). […] While determining the steady-state kinetics of pMT7, it was noticed that the reaction with purified pMT7 stopped at 6 h before significant conversion had taken place (FIG. 15a). Moreover, while using cell extracts containing pMT7, the reaction reached a plateau after 1-day incubation (FIG. 15b). […] Since pMT7 is an hexamer in solution^10, its oligomeric state before and after the reaction was examined. […] (28 C) overnight as compared to 4° C. […] It was further tested if the enzyme was subject to feedback inhibition, as the cofactor product SAH is a potent inhibitor of methyltransferases^12.
To determine the purified enzyme kinetics and in vivo production, the reaction mixture was extracted with 0.5× or 1× volume of ethyl acetate and the organic phase was diluted appropriately before subjected to GCMS analysis. The samples were analyzed on an Agilent Intuvo 9000 GC system equipped with Agilent DB-WAX Ultra Inert Intuvo GC column (30 m×250 μm×0.25 μm) and Agilent 5977B mass spectrometry with high efficiency source. 1 μl organic phase was injected at the split ratio 10:1 at 250° C. […] The concentration of psi-ionone and irone were calculated by interpolating with a standard curve prepared by synthetic standards.

[4] = In vitro biotransformation of psi-ionone to cis-α-irone by cell lysate containing overexpressed pMT10; settings: 28° C., 3 days
Protocol: as §1
With the positive effect of mtaD, in vitro biotransformation by using cell lysate containing overexpressed pMT10 and mtaD was explored. To challenge the enzyme, 10 mg/L (0.05 mM), 100 mg/L (0.5 mM) or 1000 mg/L (5 mM) of psi-ionone was supplemented into the reaction, and 6.4 mg/L (˜0.03 mM), 54 mg/L (˜0.26 mM) and 182 mg/L (˜0.88 mM) of cis-α-irone were produced, respectively after incubating the reaction at 28° C. for 3 days (FIG. 3d).

B1: pMT7: pMT1 with Y200F S182E L273V L180A A202L Y65F (protein)
chain: MPQEARTPQQQVTADEVGDWYDKFGEVYHLTLGESVHCGLWFPPDAPVPQDMELVTMSSQAQDRFTDYLIETLDPKAGQHLLDIGCGTGRTALKAARQRGIAVTGVAVSKEQIAAANRLAAGHGLTERLTFEVADAMRLPYEDESFDCAWAIESLCHMDRAKALGEAWRVLKPGGDLLVAEEVVTEELTEPETALFETLFALNVPPRLGEFFDIVSGAGFHTLSLKDLSANLAMTMNVFALGVYSRRAEFTERFGAEFVDGLLAGLGSAQETVIRKTRFFMATLRKPAV
modifications: Modified from pMT1
notes: pMT1 with Y200F S182E L273V L180A A202L Y65F
[1]; higher as compared to pMT1
  cis-α-irone production: 2,450 fold
[1]; pMT6_Y65 mutants
  fold change in cis-α-irone produced: 1.4
[1]; pMT7_T91 mutants
  fold change in cis-α-irone produced: 1.0
[1]; vs pMT1, TTN = cis-α-irone produced / soluble pMT enzyme
  improvement of total turnover number (TTN): 2,000 fold

B2: pMT10: pMT1 with Y200F S182E L273V L180A A202L Y65F C156A T91P (protein)
chain: MPQEARTPQQQVTADEVGDWYDKFGEVYHLTLGESVHCGLWFPPDAPVPQDMELVTMSSQAQDRFTDYLIETLDPKAGQHLLDIGCGTGRPALKAARQRGIAVTGVAVSKEQIAAANRLAAGHGLTERLTFEVADAMRLPYEDESFDCAWAIESLAHMDRAKALGEAWRVLKPGGDLLVAEEVVTEELTEPETALFETLFALNVPPRLGEFFDIVSGAGFHTLSLKDLSANLAMTMNVFALGVYSRRAEFTERFGAEFVDGLLAGLGSAQETVIRKTRFFMATLRKPAV
modifications: Modified from pMT1
notes: pMT1 with Y200F S182E L273V L180A A202L Y65F C156A T91P
[2]; as compared to pMT10 reaction alone
  cis-α-irone production improvement with mtaD enzyme: ~2.5 fold
[2]; with mtaD
  cis-α-irone amount relative to pMT7 reaction alone: ~6.5 fold
[2]; without mtaD
  cis-α-irone amount relative to pMT7 reaction alone: ~4.5 fold
[3]
  improvement of catalytic efficiency: 10 fold
[4]; 10 mg/L (0.05 mM) psi-ionone
  cis-α-irone produced: 6.4 mg/L and ~0.03 mM
[4]; 100 mg/L (0.5 mM) psi-ionone
  cis-α-irone produced: 54 mg/L and ~0.26 mM
